Broadly, the Kd is the equilibrium constant for the complex coming apart. As a reminder, the koff is the first-order rate constant of dissociation. Usually kon stands for the rate constant with which the complex forms. One may read the EC50 as the midpoint of the concentration-response curve.

For assay [1], the target named is T1, human CLL1 ECD-His (human CLL1 extracellular domain with His tag) (human, UniProt Q5QGZ9 65-265).
T1 construct: also called antigen human CLL1 ECD-His; antigen CLL1; not shown: His tag
T1 sequence: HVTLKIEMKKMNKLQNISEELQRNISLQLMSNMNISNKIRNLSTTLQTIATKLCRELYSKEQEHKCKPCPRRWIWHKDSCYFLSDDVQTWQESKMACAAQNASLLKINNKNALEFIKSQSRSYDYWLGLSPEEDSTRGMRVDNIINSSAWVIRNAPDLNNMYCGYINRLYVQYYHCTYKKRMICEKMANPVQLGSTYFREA
As to the kind of experiment: BLI (ForteBio), antibody on AHC sensor, 60 nM human CLL1 ECD-His, 1:1 model. How it is done:
In short, 4 μg/mL antibody was loaded on the anti-human IgG capture (AHC) biosensor, the sensor was equilibrated offline for 30 min in the assay buffer, and the online monitoring was used for 60 s to establish the baseline; the antibody-loaded sensor was incubated with the 60 nM antigen human CLL1 ECD-His for 3 min, then transferred to the assay buffer, and the dissociation rate was measured after 3 min; the kinetic analysis was performed using a 1:1 binding model.

Assay [2] addresses T1, human CLL1 ECD-His (human CLL1 …). As to the kind of experiment: BLI (ForteBio), antibody on AHC sensor, 100 nM human CLL1 ECD-His, 1:1 model. On the procedure: In short, the antibody was loaded on the anti-human IgG capture (AHC) biosensor, the sensor was equilibrated in the assay buffer for 30 min offline, and monitored online for 60 s to establish the baseline; the antibody-loaded sensor was incubated with the 100 nM antigen human CLL1 ECD-His for 5 min, then transferred to the assay buffer, and the dissociation rate was measured after 5 min; the kinetic analysis was carried out using a 1:1 combination model.
(In general: Biolayer interferometry detects binding as a change in optical thickness at a sensor tip.)

In assay [3] the target is T2, human CLL1 on the surface of transfected cells (HEK293-CLL1; HEK-293T membrane proteome array) (human, UniProt Q5QGZ9 1-265).
T2 construct: whole, on cells; also called HEK293-CLL1 cells; CLL1 target antigen
T2 sequence (looked up): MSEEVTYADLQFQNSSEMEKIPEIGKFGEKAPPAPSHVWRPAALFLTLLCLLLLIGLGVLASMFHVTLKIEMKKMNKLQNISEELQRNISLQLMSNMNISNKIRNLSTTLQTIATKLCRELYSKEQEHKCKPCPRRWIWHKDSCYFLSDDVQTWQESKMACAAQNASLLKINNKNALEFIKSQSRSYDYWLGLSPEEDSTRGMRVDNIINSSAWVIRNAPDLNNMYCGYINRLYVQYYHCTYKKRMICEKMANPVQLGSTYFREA
As to the kind of experiment: flow cytometry on HEK293 cells overexpressing CLL1, FITC goat anti-human IgG-Fc secondary; controls on the sheet: Cells + Secondary Antibody 1029.8, Blank 1041.3. How it is done: In the present example, flow cytometry was used to detect the binding of antibodies ch23D7, ch27H4, and ch19C1 to CLL1 on HEK293 cells. The steps are as follows:
5×10⁵ HEK293 cells overexpressing CLL1 were resuspended in PBS+5% BSA and incubated at 4° C. for 30 min; antibodies of different concentrations (1 μg/mL˜0.01 μg/mL, 10-fold dilutions) were added and incubated at 4° C. for 60 min; after centrifugation and washing, a PBS+5% BSA solution containing FITC-labeled goat anti-human IgG-Fc secondary antibody (1:200, sigma, F9512) was added, and incubated on ice for 30 min in the dark; the cells were washed 3 times and then analyzed by flow cytometry;
In general terms: Flow cytometry measures light scatter and fluorescence of single cells or particles in a stream.

Assay [4] addresses T2, human CLL1 on the surface of …. As to the kind of experiment: flow cytometry on HEK293 cells overexpressing CLL1. The source says: In the present example, flow cytometry was used to detect the binding of antibodies hz27H4H1L1, hz27H4H1L2 and CLL1 on HEK293 cells.
The target of assay [5] is T3, Recombinant Cynomolgus Monkey CLL-1 Protein (his), Acro CLA-H5263 (cynomolgus monkey, UniProt A0A2K5WXQ4 71-271).
T3 construct: also called Analyte 2
T3 sequence: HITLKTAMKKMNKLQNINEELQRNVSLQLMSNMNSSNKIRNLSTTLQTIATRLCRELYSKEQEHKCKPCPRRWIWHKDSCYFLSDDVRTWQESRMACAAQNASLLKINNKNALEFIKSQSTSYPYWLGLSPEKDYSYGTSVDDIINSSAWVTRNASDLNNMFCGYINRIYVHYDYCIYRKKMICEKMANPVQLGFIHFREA
As to the kind of experiment: SPR, antibody captured on Protein A chip, cynomolgus CLL-1 as analyte. For orientation: In SPR one partner is held on a chip, and binding of the other changes the refractive index at the surface.

Assay [6] concerns the target T4, Recombinant Human CLL-1 Protein (his), Acro CLA-H5245 (human, UniProt Q5QGZ9 65-265).
T4 construct: also called Analyte 1; not shown: his tag
T4 sequence (looked up): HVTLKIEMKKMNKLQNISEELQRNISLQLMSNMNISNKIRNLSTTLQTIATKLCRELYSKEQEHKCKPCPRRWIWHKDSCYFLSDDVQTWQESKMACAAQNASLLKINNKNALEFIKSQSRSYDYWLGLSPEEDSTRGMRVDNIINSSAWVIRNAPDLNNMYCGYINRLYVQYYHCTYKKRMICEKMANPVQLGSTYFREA
As to the kind of experiment: SPR, antibody captured on Protein A chip, recombinant human CLL-1 as analyte 3.125-50 nM, 1:1 model.

B1: anti-human CLL-1 control antibody 1075.7 (antibody)
scFv: ENVLTQSPAIMSASPGEKVTMTCRASSNVISSYVHWYQQRSGASPKLWIYSTSNLASGVPARFSGSGSGTSYSLTISSVEAEDAATYYCQQYSGYPLTFGAGTKLELGGGGSGGGGSGGGGSDIQLQESGPGLVKPSQSLSLTCSVTGYSITSAYYWNWIRQFPGNKLEWMGYISYDGRNNYNPSLKNRISITRDTSKNQFFLKLNSVTTEDTATYYCAKEGDYDVGNYYAMDYWGQGTSVTVSS
notes: it was captured by anti-human IgG sensors and detected with anti-human IgG-Fc, so a human Fc was present; also called ch1075.7
B1: in assay [1], binding was characterised by a dissociation constant (Kd) of 6.76 nM, the Response came to 0.219, the koff turned out to be 0.000997 s⁻¹ and the kon is 148000 M⁻¹ s⁻¹. In addition, in assay [2], the Kd turned out to be 0.414 nM, the Response worked out at 0.236, the koff stood at 4.48e-05 s⁻¹ and the kon stood at 108000 M⁻¹ s⁻¹. Further, in assay [3], the “MFI at 0.01ug/ml” value amounted to 4580, the “MFI at 0.1ug/ml” value was 35600 and the “MFI at 1ug/ml” value was 222000. The molecule further yielded an EC50 in assay [4] of 0.245 µg/mL.

B2: chimeric antibody ch19C1 (antibody, V domains shown)
VH: QVQLQQSGAELMKPGASVKISCKATGYTFSSYWIEWVKQRPGHGLEWIGEIFPGSGSIKYNEKFKGKATFTADTSSNTAYMQLSSLTSEDSAVHYCARGGTYNDYSLFDYWGQGTTLTVSS
VL: QIVLTQSPAIMSASPGEKVTMTCSASSSVSYMYWYQQKPGSSPRLLIFDTSNLASGVPVRFSGSGSGTSYSLTISRMEAEDAATYYCQQWSSYPLTFGAGTKLELK
Regarding B2, in assay [2], the Kd amounted to 10.9 nM, the Response came out at 0.619, the koff is 0.00197 s⁻¹ and the kon was 180000 M⁻¹ s⁻¹. Also, in assay [3], the “MFI at 0.01ug/ml” value amounted to 4610, the “MFI at 0.1ug/ml” value is 35900 and the “MFI at 1ug/ml” value came out at 163000.

B3: chimeric antibody ch23D7 (antibody, V domains shown)
VH: QVQLQQPGSDLVRPGASVKLSCKASGYTFTRYWMHWVKQRPGHGLEWIGYIYPGSGTSNYDEKFKSKATLTVDTSSSTAYMQLSSLTSEDSAVYYCTREARYTMDYWGQGTSVTVSS
VL: QIVLTQSPAIMSASPGEKVTMTCSASSSVSYIYWYQQKPGSSPGLLIYDTSNLASGVPVRFSGSGSGTSYSLTISRMEAEDAATYYCQQWSSFPPTFGAGTKLELK
Take B3: in assay [2], the Kd was 2.19 nM, the Response came to 0.654, the koff was 0.000284 s⁻¹ and the on-rate constant (kon) was determined as 130000 M⁻¹ s⁻¹. In addition, in assay [3], the “MFI at 0.01ug/ml” value is 4690, the “MFI at 0.1ug/ml” value stood at 34600 and the “MFI at 1ug/ml” value was found to be 151000.

B4: humanized antibody hz27H4H1L1 (antibody, V domains shown)
VH: EVQLVQSGAEVKKPGASVKVSCKASGYTFTGYHMHWVRQAPGQRLEWMGRINPYNGAASHNQKFKDRVTITRDTSASTAYMELSSLRSEDTAVYYCARGWDYDGGYYAMDYWGQGTLVTVSS
VL: DIQMTQSPSSLSASVGDRVTITCKSSQSLLYSDNQKNYLAWYQQKPGKAPKLLIYWASTRESGVPSRFSGSGSGTDFTLTISSLQPEDFATYYCQQYYTYPYTFGQGTKLEIK
notes: Heavy chain variable region hz27H4H1 with light chain variable region hz27H4L1; also called h27H4H1L1 (complete antibody)
In assay [1], B4 displayed a Kd of 2.29 nM, a Response of 0.612, a koff of 0.000862 s⁻¹ and a kon of 377000 M⁻¹ s⁻¹. Also, the binding result in assay [5] is “no binding (tested: 50 nM)”. In assay [4], this molecule showed an EC50 of 0.262 µg/mL. Moreover, in assay [6], the Kd was found to be 1.12 nM, the koff amounted to 0.00549 s⁻¹ and the kon amounted to 4.91e+06 M⁻¹ s⁻¹.

B5: humanized antibody hz27H4H1L3 (antibody, V domains shown)
VH: EVQLVQSGAEVKKPGASVKVSCKASGYTFTGYHMHWVRQAPGQRLEWMGRINPYNGAASHNQKFKDRVTITRDTSASTAYMELSSLRSEDTAVYYCARGWDYDGGYYAMDYWGQGTLVTVSS
VL: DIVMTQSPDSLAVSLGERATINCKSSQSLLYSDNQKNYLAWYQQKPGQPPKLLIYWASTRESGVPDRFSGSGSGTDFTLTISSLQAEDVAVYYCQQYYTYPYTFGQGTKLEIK
notes: Heavy chain variable region hz27H4H1 with light chain variable region hz27H4L3
Turning to B5, in assay [1], binding was characterised by a dissociation constant (Kd) of 2.49 nM, the Response worked out at 0.722, the koff amounted to 0.00109 s⁻¹ and the kon was 438000 M⁻¹ s⁻¹.

B6: 19C1-scFv-hFc (Fc fusion)
scFv: QIVLTQSPAIMSASPGEKVTMTCSASSSVSYMYWYQQKPGSSPRLLIFDTSNLASGVPVRFSGSGSGTSYSLTISRMEAEDAATYYCQQWSSYPLTFGAGTKLELKGGGGSGGGGSGGGGSQVQLQQSGAELMKPGASVKISCKATGYTFSSYWIEWVKQRPGHGLEWIGEIFPGSGSIKYNEKFKGKATFTADTSSNTAYMQLSSLTSEDSAVHYCARGGTYNDYSLFDYWGQGTTLTVSS
notes: VL-(G4S)3-VH structure with C-terminal human IgG1 Fc; also called Anti-CLL1 scFv-hIgG1; not shown: human IgG1 Fc fused at the C-terminus
For the molecule B6, the binding result in assay [5] is on record as “no binding (tested: 50 nM)”. Moreover, in assay [6], the Kd worked out at 5.75 nM, the koff amounted to 0.00509 s⁻¹ and the kon was 886000 M⁻¹ s⁻¹.

B7: chimeric antibody ch27H4 (antibody, V domains shown)
VH: EVQLQQSGPELVKPGASVKISCKASGYSFTGYHMHWVKQSHVKSLEWIGRINPYNGAASHNQKFKDKATLTVDKSSSTAYMELHSLTSEDSAVYYCARGWDYDGGYYAMDYWGQGTSVTVSS
VL: DIVMSQSPSSLAVSVGEKVTMSCKSSQSLLYSDNQKNYLAWYQQKPGQSPKLLIYWASTRESGVPDRFTGSGSGTDFTLTISSVKAEDLAVYYCQQYYTYPYTFGGGTKLEIK
notes: also called parent antibody
Take B7: in assay [1], the Kd stood at 3.88 nM, the Response came out at 0.597, the koff is 0.00124 s⁻¹ and the kon is 320000 M⁻¹ s⁻¹. For the same molecule, in assay [2], the Kd worked out at 3.83 nM, the Response stood at 0.634, the koff amounted to 0.00101 s⁻¹ and the kon was determined as 265000 M⁻¹ s⁻¹. In addition, in assay [3], the “MFI at 0.01ug/ml” value came to 3510, the “MFI at 0.1ug/ml” value came to 25200 and the “MFI at 1ug/ml” value came to 163000. Also, the response in assay [4] was half-maximal at 0.358 µg/mL (EC50).

B8: 27H4-scFv-hFc (Fc fusion)
scFv: DIVMSQSPSSLAVSVGEKVTMSCKSSQSLLYSDNQKNYLAWYQQKPGQSPKLLIYWASTRESGVPDRFTGSGSGTDFTLTISSVKAEDLAVYYCQQYYTYPYTFGGGTKLEIKGGGGSGGGGSGGGGSEVQLQQSGPELVKPGASVKISCKASGYSFTGYHMHWVKQSHVKSLEWIGRINPYNGAASHNQKFKDKATLTVDKSSSTAYMELHSLTSEDSAVYYCARGWDYDGGYYAMDYWGQGTSVTVSS
notes: as for B6
Turning to B8, the binding result in assay [5] is given as “no binding (tested: 50 nM)”. In assay [6], the Kd turned out to be 3.06 nM, the dissociation rate constant (koff) is 0.0126 s⁻¹ and the kon came out at 4.11e+06 M⁻¹ s⁻¹.

B9: 23D7-scFv-hFc (Fc fusion)
scFv: QIVLTQSPAIMSASPGEKVTMTCSASSSVSYIYWYQQKPGSSPGLLIYDTSNLASGVPVRFSGSGSGTSYSLTISRMEAEDAATYYCQQWSSFPPTFGAGTKLELKGGGGSGGGGSGGGGSQVQLQQPGSDLVRPGASVKLSCKASGYTFTRYWMHWVKQRPGHGLEWIGYIYPGSGTSNYDEKFKSKATLTVDTSSSTAYMQLSSLTSEDSAVYYCTREARYTMDYWGQGTSVTVSS
notes: as for B6
On to B9, for which the binding result in assay [5] is given as “no binding (tested: 50 nM)”. Further, in assay [6], the Kd worked out at 110 nM, the koff is 0.0322 s⁻¹ and the kon is 293000 M⁻¹ s⁻¹.

Values taken from US20220396626A1 (GUANGZHOU BIO GENE TECHNOLOGY, published 2022).
